Assay results taken from the supplement of paper PMC7125110.
± gives the standard error. For some assays here: Fewer inactive variants are shown than the library holds.

B1: glmS ribozyme (parent)
chain: AUAAAAGCGCCAGAACUACAGAAAUGUAGUUGACGAGGAGGAGGUUUAUCGAAUUUUCGGCGGAUGCCUCCAAA

What was measured:
Settings in all cases: with glucosamine-6-phosphate
[1] = variants of: B1; assay: kcat; higher = faster cleavage; RNA array
Outline: (§1)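 Glucosamine-6-phosphate, from 40 μM to 10 mM in HEPES/KCl/Mg(OAc)2 buffer, was flowed over sequenced MiSeq chips carrying barcoded ribozyme variants transcribed in situ by E. coli RNA polymerase. A hybridised Cy3 probe tracked the variants at 37 °C as tiles were imaged over ~14 h. kobs, kcat and KM were obtained by fitting normalised per-tile medians to exponential decays and then applying weighted Michaelis–Menten fits across concentrations.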

[2] = variants of: B1; assay: KM; higher = weaker cofactor use; RNA array
Outline: as §1

[3] = variants of: B1; assay: self-cleavage kobs at 640 uM GlcN6P; higher = faster cleavage; RNA array
Outline: as §1

[4] = variants of: B1; assay: self-cleavage kobs at 2500 uM GlcN6P; higher = faster cleavage; RNA array
Outline: as §1

[5] = variants of: B1; assay: self-cleavage kobs at 10000 uM GlcN6P; higher = faster cleavage; RNA array
Outline: as §1

[6] = variants of: B1; assay: self-cleavage kobs at 40 uM GlcN6P; higher = faster cleavage; RNA array
Outline: as §1

[7] = variants of: B1; assay: self-cleavage kobs at 160 uM GlcN6P; higher = faster cleavage; RNA array
Outline: as §1

Row | Variant | kcat [1] | KM [2] | self-cleavage kobs at 640 uM GlcN6P [3] | self-cleavage kobs at 2500 uM GlcN6P [4] | self-cleavage kobs at 10000 uM GlcN6P [5] | self-cleavage kobs at 40 uM GlcN6P [6] | self-cleavage kobs at 160 uM GlcN6P [7]
1 | G40U A64G | 0.000292 ± 2.9e-05 s⁻¹ | 1790 ± 360 µM | 8.19e-05 ± 1.2e-05 s⁻¹ | 0.000145 ± 2.8e-05 s⁻¹ | 0.00026 ± 3.3e-05 s⁻¹ | – | –
2 | G40A U54C | 0.00522 ± 0.00053 s⁻¹ | 908 ± 140 µM | 0.00211 ± 0.0003 s⁻¹ | 0.00449 ± 0.0013 s⁻¹ | 0.00467 ± 0.0012 s⁻¹ | 0.000248 ± 5.6e-05 s⁻¹ | 0.000724 ± 0.00016 s⁻¹
3 | G41A U45G | 0.000391 ± 0.00013 s⁻¹ | – | 0.000144 ± 2.4e-05 s⁻¹ | 0.000565 ± 0.0001 s⁻¹ | 0.000304 ± 5.2e-05 s⁻¹ | 2.84e-05 ± 1.3e-05 s⁻¹ | 3e-05 ± 1.3e-05 s⁻¹
4 | G41A U45A | 0.000317 ± 4.9e-05 s⁻¹ | 140 ± 59 µM | 0.000296 ± 5.5e-05 s⁻¹ | 0.000354 ± 8.1e-05 s⁻¹ | 0.000299 ± 5.4e-05 s⁻¹ | 9.19e-05 ± 1.9e-05 s⁻¹ | 0.000128 ± 3e-05 s⁻¹
5 | G40A G41A | 0.000106 ± 2.5e-05 s⁻¹ | – | 6.83e-05 ± 1.2e-05 s⁻¹ | 0.000163 ± 2.3e-05 s⁻¹ | 8.89e-05 ± 1e-05 s⁻¹ | – | –
6 | G40C U45A | 0.00147 ± 0.00022 s⁻¹ | 823 ± 200 µM | 0.000631 ± 7.8e-05 s⁻¹ | 0.00123 ± 0.00018 s⁻¹ | 0.00131 ± 0.00019 s⁻¹ | 7.94e-05 ± 9.2e-06 s⁻¹ | 0.000183 ± 3.5e-05 s⁻¹
7 | G41A U56G | 0.000193 ± 1.8e-05 s⁻¹ | 1740 ± 310 µM | 5.1e-05 ± 1.4e-05 s⁻¹ | 0.000109 ± 3.5e-05 s⁻¹ | 0.000169 ± 4.7e-05 s⁻¹ | – | –
8 | G40U A48G | 8.97e-05 ± 4.3e-05 s⁻¹ | – | – | – | 3.18e-05 ± 8.1e-06 s⁻¹ | < 1e-05 s⁻¹ | –
9 | G40C A42G | 0.00319 ± 0.00048 s⁻¹ | 1060 ± 250 µM | 0.000898 ± 0.00025 s⁻¹ | 0.0025 ± 0.0006 s⁻¹ | 0.00299 ± 0.00053 s⁻¹ | 0.000131 ± 2.4e-05 s⁻¹ | 0.000438 ± 0.00016 s⁻¹
10 | G40U U56C | 1.13e-05 ± 5.2e-06 s⁻¹ | – | – | – | – | < 1e-05 s⁻¹ | –
11 | G40U A42C | 1.23e-05 ± 9.1e-08 s⁻¹ | 2280 ± 50 µM | – | – | – | – | –
12 | G41C A53U | 0.000241 ± 3.2e-05 s⁻¹ | 1290 ± 380 µM | 7.44e-05 ± 1.2e-05 s⁻¹ | 0.000197 ± 3.2e-05 s⁻¹ | 0.000201 ± 2.9e-05 s⁻¹ | – | –
13 | G41C A53C | 0.000159 ± 1.5e-05 s⁻¹ | 3660 ± 720 µM | 1.93e-05 ± 9.5e-06 s⁻¹ | 6.77e-05 ± 9.6e-06 s⁻¹ | 0.000115 ± 1.5e-05 s⁻¹ | – | –
14 | A39U G66U | 0.0039 ± 0.0011 s⁻¹ | 2010 ± 860 µM | 0.000735 ± 8.7e-05 s⁻¹ | 0.0018 ± 0.00025 s⁻¹ | 0.00372 ± 0.00032 s⁻¹ | 0.000107 ± 1e-05 s⁻¹ | 0.000292 ± 5.6e-05 s⁻¹
15 | A39C G59A | < 1e-05 s⁻¹ | – | < 1e-05 s⁻¹ | – | – | < 1e-05 s⁻¹ | < 1e-05 s⁻¹
16 | G40U U55A | 0.00366 ± 0.0016 s⁻¹ | – | 0.000764 ± 0.00022 s⁻¹ | 0.00204 ± 0.00041 s⁻¹ | 0.00304 ± 0.00059 s⁻¹ | 0.00026 ± 5.9e-05 s⁻¹ | 0.000217 ± 5.8e-05 s⁻¹
17 | A39C C68U | 0.000495 ± 6.5e-05 s⁻¹ | 1180 ± 300 µM | 0.000159 ± 1.7e-05 s⁻¹ | 0.000367 ± 5.1e-05 s⁻¹ | 0.000445 ± 4.9e-05 s⁻¹ | 2.73e-05 ± 7e-06 s⁻¹ | 6.25e-05 ± 1.3e-05 s⁻¹
18 | A39G G66C | 0.00327 ± 0.0016 s⁻¹ | – | 0.000484 ± 9.6e-05 s⁻¹ | 0.00169 ± 0.00033 s⁻¹ | – | 7.7e-05 ± 2.6e-05 s⁻¹ | 0.000141 ± 3.4e-05 s⁻¹
19 | A39U G44C | 0.000268 ± 4.5e-05 s⁻¹ | 1920 ± 770 µM | 6.01e-05 ± 1.7e-05 s⁻¹ | 0.0002 ± 3.9e-05 s⁻¹ | 0.000212 ± 3.2e-05 s⁻¹ | – | –
20 | A39U G44A | 0.00136 ± 0.00031 s⁻¹ | 572 ± 210 µM | 0.00078 ± 9.9e-05 s⁻¹ | 0.001 ± 0.00017 s⁻¹ | 0.00144 ± 0.00021 s⁻¹ | 0.000115 ± 1.3e-05 s⁻¹ | 0.00021 ± 3.9e-05 s⁻¹
21 | G41A A64G | 0.00209 ± 0.00064 s⁻¹ | 5950 ± 2800 µM | – | 0.00071 ± 0.00016 s⁻¹ | 0.00128 ± 0.00023 s⁻¹ | – | 7.21e-05 ± 2e-05 s⁻¹
22 | A39U C67A | 0.00981 ± 0.0028 s⁻¹ | 2330 ± 910 µM | 0.0015 ± 0.00027 s⁻¹ | 0.00477 ± 0.0011 s⁻¹ | 0.00878 ± 0.0012 s⁻¹ | 0.000197 ± 2.5e-05 s⁻¹ | 0.000759 ± 0.00012 s⁻¹
23 | A39U C67G | 0.00521 ± 0.0013 s⁻¹ | 1290 ± 420 µM | 0.00221 ± 0.00032 s⁻¹ | 0.00196 ± 0.00069 s⁻¹ | 0.00516 ± 0.00068 s⁻¹ | 0.000162 ± 1.8e-05 s⁻¹ | 0.000514 ± 7.5e-05 s⁻¹
24 | A39U C67U | 0.0107 ± 0.0018 s⁻¹ | 2220 ± 500 µM | 0.00228 ± 0.00025 s⁻¹ | 0.00631 ± 0.001 s⁻¹ | 0.00878 ± 0.00079 s⁻¹ | 0.000223 ± 1.9e-05 s⁻¹ | 0.000573 ± 8.1e-05 s⁻¹
25 | A39C C70A | < 1e-05 s⁻¹ | – | < 1e-05 s⁻¹ | – | – | < 1e-05 s⁻¹ | –
26 | G41C U47A | 0.000354 ± 1.6e-05 s⁻¹ | 4510 ± 420 µM | 4.21e-05 ± 1.2e-05 s⁻¹ | 0.000134 ± 2.8e-05 s⁻¹ | 0.000243 ± 2.7e-05 s⁻¹ | – | –
27 | G41U C70A | 0.0306 ± 0.013 s⁻¹ | – | 0.0189 ± 0.0026 s⁻¹ | 0.0568 ± 0.016 s⁻¹ | – | 0.00288 ± 0.00022 s⁻¹ | 0.00721 ± 0.0009 s⁻¹
28 | A39G U47A | 0.0304 ± 0.014 s⁻¹ | – | 0.00788 ± 0.0025 s⁻¹ | 0.0164 ± 0.005 s⁻¹ | 0.0441 ± 0.011 s⁻¹ | 0.00119 ± 0.00019 s⁻¹ | 0.00231 ± 0.00088 s⁻¹
29 | A39C A64C | 4.47e-05 ± 2.7e-06 s⁻¹ | – | – | 4.35e-05 ± 1.6e-05 s⁻¹ | 4.27e-05 ± 1.3e-05 s⁻¹ | – | < 1e-05 s⁻¹
